Results reported in patent publication US20250352667A1.

Legend:
[1] = biological target: KEAP1 (wild-type full-length), His-tagged (human) (UniProt Q14145); assay: AlphaScreen; 307.2 nM FLAG-NRF2, 150 nM His-KEAP1; signal against NRF2 only
[2] = biological target: KEAP1 (wild-type full-length), His-tagged (human) (UniProt Q14145); assay: AlphaScreen; 76.8 nM FLAG-NRF2, 150 nM His-KEAP1; Rep 1
[3] = biological target: KEAP1 (wild-type full-length), His-tagged (human) (UniProt Q14145); assay: AlphaScreen; 153.6 nM FLAG-NRF2, 150 nM His-KEAP1; Rep 1
[4] = biological target: KEAP1 (wild-type full-length), His-tagged (human) (UniProt Q14145); assay: AlphaScreen; 153.6 nM FLAG-NRF2, 150 nM His-KEAP1; Rep 2
[5] = biological target: KEAP1 (wild-type full-length), His-tagged (human) (UniProt Q14145); assay: AlphaScreen; 307.2 nM FLAG-NRF2, 150 nM His-KEAP1; Rep 2
[6] = biological target: KEAP1 (wild-type full-length), His-tagged (human) (UniProt Q14145); assay: AlphaScreen; 76.8 nM FLAG-NRF2, 150 nM His-KEAP1; Rep 2
[7] = biological target: KEAP1 (wild-type full-length), His-tagged (human) (UniProt Q14145); assay: AlphaScreen; 9.6 nM FLAG-NRF2, 150 nM His-KEAP1; Rep 2
[8] = biological target: KEAP1 (wild-type full-length), His-tagged (human) (UniProt Q14145); assay: AlphaScreen; 38.4 nM FLAG-NRF2, 150 nM His-KEAP1; Rep 1
[9] = biological target: KEAP1 (wild-type full-length), His-tagged (human) (UniProt Q14145); assay: AlphaScreen; 614.4 nM FLAG-NRF2, 150 nM His-KEAP1; Rep 2
[10] = biological target: KEAP1 (wild-type full-length), His-tagged (human) (UniProt Q14145); assay: AlphaScreen; 4.8 nM FLAG-NRF2, 150 nM His-KEAP1; signal against NRF2 only
[11] = biological target: KEAP1 (wild-type full-length), His-tagged (human) (UniProt Q14145); assay: AlphaScreen; 614.4 nM FLAG-NRF2, 150 nM His-KEAP1; Rep 1
[12] = biological target: KEAP1 (wild-type full-length), His-tagged (human) (UniProt Q14145); assay: AlphaScreen; 76.8 nM FLAG-NRF2, 150 nM His-KEAP1; signal against NRF2 only
[13] = biological target: KEAP1 (wild-type full-length), His-tagged (human) (UniProt Q14145); assay: AlphaScreen; 2.4 nM FLAG-NRF2, 150 nM His-KEAP1; signal against NRF2 only
[14] = biological target: KEAP1 (wild-type full-length), His-tagged (human) (UniProt Q14145); assay: AlphaScreen; 38.4 nM FLAG-NRF2, 150 nM His-KEAP1; Rep 2
[15] = biological target: KEAP1 (wild-type full-length), His-tagged (human) (UniProt Q14145); assay: AlphaScreen; 153.6 nM FLAG-NRF2, 150 nM His-KEAP1; signal against NRF2 only
[16] = biological target: KEAP1 (wild-type full-length), His-tagged (human) (UniProt Q14145); assay: AlphaScreen; 1228.8 nM FLAG-NRF2, 150 nM His-KEAP1; signal against NRF2 only
[17] = biological target: KEAP1 (wild-type full-length), His-tagged (human) (UniProt Q14145); assay: AlphaScreen; 19.2 nM FLAG-NRF2, 150 nM His-KEAP1; Rep 1
[18] = biological target: KEAP1 (wild-type full-length), His-tagged (human) (UniProt Q14145); assay: AlphaScreen; 4.8 nM FLAG-NRF2, 150 nM His-KEAP1; Rep 1
[19] = biological target: KEAP1 (wild-type full-length), His-tagged (human) (UniProt Q14145); assay: AlphaScreen; 2.4 nM FLAG-NRF2, 150 nM His-KEAP1; Rep 2
[20] = biological target: KEAP1 (wild-type full-length), His-tagged (human) (UniProt Q14145); assay: AlphaScreen; 307.2 nM FLAG-NRF2, 150 nM His-KEAP1; Rep 1
[21] = biological target: KEAP1 (wild-type full-length), His-tagged (human) (UniProt Q14145); assay: AlphaScreen; 1228.8 nM FLAG-NRF2, 150 nM His-KEAP1; Rep 1
[22] = biological target: KEAP1 (wild-type full-length), His-tagged (human) (UniProt Q14145); assay: AlphaScreen; 9.6 nM FLAG-NRF2, 150 nM His-KEAP1; signal against NRF2 only
[23] = biological target: KEAP1 (wild-type full-length), His-tagged (human) (UniProt Q14145); assay: AlphaScreen; 614.4 nM FLAG-NRF2, 150 nM His-KEAP1; signal against NRF2 only
[24] = biological target: KEAP1 (wild-type full-length), His-tagged (human) (UniProt Q14145); assay: AlphaScreen; 9.6 nM FLAG-NRF2, 150 nM His-KEAP1; Rep 1
[25] = biological target: KEAP1 (wild-type full-length), His-tagged (human) (UniProt Q14145); assay: AlphaScreen; 19.2 nM FLAG-NRF2, 150 nM His-KEAP1; signal against NRF2 only
[26] = biological target: KEAP1 (wild-type full-length), His-tagged (human) (UniProt Q14145); assay: AlphaScreen; 19.2 nM FLAG-NRF2, 150 nM His-KEAP1; Rep 2
[27] = biological target: KEAP1 (wild-type full-length), His-tagged (human) (UniProt Q14145); assay: AlphaScreen; 4.8 nM FLAG-NRF2, 150 nM His-KEAP1; Rep 2
[28] = biological target: KEAP1 (wild-type full-length), His-tagged (human) (UniProt Q14145); assay: AlphaScreen; 2.4 nM FLAG-NRF2, 150 nM His-KEAP1; Rep 1
[29] = biological target: KEAP1 (wild-type full-length), His-tagged (human) (UniProt Q14145); assay: AlphaScreen; 38.4 nM FLAG-NRF2, 150 nM His-KEAP1; signal against NRF2 only

Chain of KEAP1 (wild-type full-length), His-tagged (human) (Q14145 2-624 limits assumed, form in doubt): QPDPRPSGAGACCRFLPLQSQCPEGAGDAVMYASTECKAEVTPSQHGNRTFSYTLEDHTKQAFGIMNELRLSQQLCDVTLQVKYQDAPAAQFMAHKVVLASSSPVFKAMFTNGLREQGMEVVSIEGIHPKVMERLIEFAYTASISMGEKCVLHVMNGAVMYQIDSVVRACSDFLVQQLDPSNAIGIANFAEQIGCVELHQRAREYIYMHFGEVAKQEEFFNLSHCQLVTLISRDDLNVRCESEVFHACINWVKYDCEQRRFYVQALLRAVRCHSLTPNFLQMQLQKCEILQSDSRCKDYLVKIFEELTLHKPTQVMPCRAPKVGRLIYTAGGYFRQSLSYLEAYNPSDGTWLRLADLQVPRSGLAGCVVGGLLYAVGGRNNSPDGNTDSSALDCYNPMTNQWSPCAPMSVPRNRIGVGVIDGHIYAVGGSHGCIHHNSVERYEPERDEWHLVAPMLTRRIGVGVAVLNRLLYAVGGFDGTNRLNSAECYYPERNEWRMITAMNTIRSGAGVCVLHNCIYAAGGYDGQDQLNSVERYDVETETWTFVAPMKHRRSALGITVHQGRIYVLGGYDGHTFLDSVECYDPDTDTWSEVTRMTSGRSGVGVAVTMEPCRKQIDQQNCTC

| S/N [1] | A-counts [2] | A-counts [3] | A-counts [4] | A-counts [5] | A-counts [6] | A-counts [7] | A-counts [8] | A-counts [9] | S/N [10] | A-counts [11] | S/N [12] | S/N [13] | A-counts [14] | S/N [15] | S/N [16] | A-counts [17] | A-counts [18] | A-counts [19] | A-counts [20] | Substance | further results |
| --- | --- | --- | --- | --- | --- | --- | --- | --- | --- | --- | --- | --- | --- | --- | --- | --- | --- | --- | --- | --- | --- |
| 1.1 | 2140 A-counts | 1820 A-counts | 1840 A-counts | 1650 A-counts | 1900 A-counts | 1520 A-counts | 2120 A-counts | 1400 A-counts | 1.8 | 1570 A-counts | 1.7 | 1.7 | 1960 A-counts | 1.5 | 1 | 1700 A-counts | 1390 A-counts | 1120 A-counts | 1600 A-counts | NRF2 isoform 2 (E63G/E66G full-length), FLAG-tagged | A-counts [21]: 1250 A-counts; S/N [22]: 1.8; S/N [23]: 1.1; A-counts [24]: 1670 A-counts; S/N [25]: 1.8; A-counts [26]: 1950 A-counts; A-counts [27]: 1480 A-counts; A-counts [28]: 1080 A-counts; S/N [29]: 1.8 |
| 2.2 | 3730 A-counts | 3200 A-counts | 3500 A-counts | 2860 A-counts | 3910 A-counts | 2590 A-counts | 3470 A-counts | 2290 A-counts | 2.7 | 2430 A-counts | 3.4 | 2 | 3460 A-counts | 2.8 | 1.3 | 3480 A-counts | 1740 A-counts | 1010 A-counts | 2970 A-counts | NRF2 isoform 2 (wild-type full-length), FLAG-tagged | A-counts [21]: 1480 A-counts; S/N [22]: 3.7; S/N [23]: 2.1; A-counts [24]: 2310 A-counts; S/N [25]: 4.2; A-counts [26]: 3260 A-counts; A-counts [27]: 1670 A-counts; A-counts [28]: 1130 A-counts; S/N [29]: 3.4 |
